The target of the data set is T1, 6his-GSU1771 (Geobacter sulfurreducens (DL1 wild-type background)) (UniProt Q74CA3).
T1 sequence: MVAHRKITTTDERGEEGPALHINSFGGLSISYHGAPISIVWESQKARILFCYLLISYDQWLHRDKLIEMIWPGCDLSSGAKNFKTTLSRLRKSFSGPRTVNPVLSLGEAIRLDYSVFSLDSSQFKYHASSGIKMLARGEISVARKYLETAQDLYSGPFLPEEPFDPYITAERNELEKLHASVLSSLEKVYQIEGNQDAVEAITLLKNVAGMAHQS
Put plainly: EMSA. Conditions: 40 mM HEPES, 8 mM MgCl2, 50 mM KCl, 1 mM DTT, 0.05% NP-40, 0.1 mg/ml BSA, 20 ul, 30 C 30 min, pH not stated; 100 ng of each fragment; 6% native PAGE in 0.5X …. A general note: A gel shift assay detects complexes by their altered migration in electrophoresis.
Take “CGCTGGATCTCCTGAAAGGGTGGGAAATCCTGAAAACAATAAGCAAATGAGAGGATGACTTACGCCAAAAGGGGGGGCTCGGGCCCCCCCTTTTTTTATGTAAATCCGATAAGTTCTATATTTGTATTGACACTCCCGTAACGATGTAGTATTCAGTAGGTAAATTAATCACAGTTAAGGTAAGGGTGTATCGCG (double strand) [gsu1771 promoter]”: the binding result is listed as “binds”. Take “AGGCTTGCTCGTCTCATGTCGCGCCGCCGTGGGAAAAAGTAGTAACCAGTAGTATATCATTTCGTCACCGTGGTTTCATTGCTTGAGCTTTTTTGCATCCGAAGCGACTCCAGCCTGTGCCCTCCGGCAATAAACCGCTTTTCCCCCGCCGGTGATGGTGGTACTCTCCTCCCATTTCGCGGAGGATGGAGTGCATGGAT (double strand) [gsu3356 promoter]”: the binding entry is “binds”.

Turning to “GTGGTATTCATGCACGTATTCTAATGACGGCCCGCAACCCAGGTGGAGCCGTCATCCTTTTTTTCGGATATACTGCCTGGATTCACGACTGAACCGGGACGGAAGGCAATAGCCGCACCGACGAGGATAGGATGAGCTTTCCCTTC (double strand) [gsu1704-gsu1705 intergenic region]”, the binding entry was “no binding”. “ACCATCTTCGCATCCCTGTGGAGGATCTCTGCTTTTCCTGCCACGACCGATAGCAGTGACTATTGTGTTGTGGTGGGTGTGTTGTGATGGTGTTGCGGTCATGTTTCTGCTTGTTTTTATTTTTAATTTTACCCATTTTGTGCTAAGAAAATCTAATGGCCCTATACCACTGTAAGCTCGGCTCCTCGGAG (double strand) [pulF promoter]”: the binding entry was “binds”.
